# Experimental data as given in patent US20040198654A1 (Eli Lilly, published 2004).
# Where no end group is shown, it is not given here.
# Biological target: GLP-1 receptor
# Assay: cell-based or functional assay
row,Binder,GLP-1 receptor activation relative to Val^8-GLP-1(7-37)OH
1,HVEGTFTSDYSSYLEGQAAKEFIAWLVKGRG-OH [Val^8-Tyr^16-GLP-1(7-37)OH],2.5 fold of Val^8-GLP-1(7-37)OH
2,HVEGTWTSDVSSYLEGQAAKEFIAWLVKGRG-OH [Val^8-Trp^12-GLP-1(7-37)OH],1.1 fold of Val^8-GLP-1(7-37)OH
3,HVEGTFTSDVSSYFEEQAAKEFIAWLVKGRG-OH [Val^8-Phe^20-Glu^22-GLP-1(7-37)OH],2.7 fold of Val^8-GLP-1(7-37)OH
4,HVEGTFTSDYSSFLEGQAAKEFIAWLVKGRG-OH [Val^8-Tyr^16-Phe^19-GLP-1(7-37)OH],2.8 fold of Val^8-GLP-1(7-37)OH
5,HGEGTFTSDVSSYLEGQAAKEFIAWLVKGRG-OH [Gly^8-GLP-1(7-37)OH],1.7 fold of Val^8-GLP-1(7-37)OH
6,HVEGTFTSDISSYLEEQAAKEFIAWLVKGRG-OH [Val^8-Ile^16-Glu^22-GLP-1(7-37)OH],3.3 fold of Val^8-GLP-1(7-37)OH
7,HVEGTFTSDVSSWLEEQAAKEFIAWLVKGRG-OH [Val^8-Trp^19-Glu^22-GLP-1(7-37)OH],3.2 fold of Val^8-GLP-1(7-37)OH
8,HVEGTFTSDWSSYLEEQAVKEFIAWLVKGRG-OH [Val^8-Trp^16-Glu^22-Val^25-GLP-1(7-37)OH],4.4 fold of Val^8-GLP-1(7-37)OH
9,HVEGTFTSDWSSYLEEQAVKEFIAWLIKGRG-OH [Val^8-Trp^16-Glu^22-Val^25-Ile^33-GLP-1(7-37)OH],5 fold of Val^8-GLP-1(7-37)OH
10,HVEGTFTSDVSSYLEEQAAKIFIAWLVKGRG-OH [Val^8-Glu^22-Ile^27-GLP-1(7-37)OH],2 fold of Val^8-GLP-1(7-37)OH
11,HVEGTWTSDVSSYLEEQAAKEFIAWLVKGRG-OH [Val^8-Trp^12-Glu^22-GLP-1(7-37)OH],1.7 fold of Val^8-GLP-1(7-37)OH
12,HVEGTYTSDVSSYLEEQAAKEFIAWLVKGRG-OH [Val^8-Tyr^12-Glu^22-GLP-1(7-37)OH],2.7 fold of Val^8-GLP-1(7-37)OH
13,HVDGIFTSDYSSYLEEQAAKEFIAWLVKGRG-OH [Val^8-Asp^9-Ile^11-Tyr^16-Glu^22-GLP-1(7-37)OH],4.3 fold of Val^8-GLP-1(7-37)OH
14,HVEGTYTSDYSSYLEGQAAKEFIAWLVKGRG-OH [Val^8-Tyr^12-Tyr^16-GLP-1(7-37)OH],1.5 fold of Val^8-GLP-1(7-37)OH
15,HVEGTFTSDVSSFLEEQAAKEFIAWLVKGRG-OH [Val^8-Phe^19-Glu^22-GLP-1(7-37)OH],1.5 fold of Val^8-GLP-1(7-37)OH
16,HVEGTFTSDVSSYLEGQALKEFIAWLVKGRG-OH [Val^8-Leu^25-GLP-1(7-37)OH],0.5 fold of Val^8-GLP-1(7-37)OH

row,Binder,GLP-1 receptor activation relative to Val^8-GLP-1(7-37)OH
1,HVEGTFTSDYSSWLEEQAAKEFIAWLVKGRG-OH [Val^8-Tyr^16-Trp^19-Glu^22-GLP-1(7-37)OH],3.5 fold of Val^8-GLP-1(7-37)OH
2,HVEGTFTSDVSSYLEGQAAKEFIEWLVKGRG-OH [Val^8-Glu^30-GLP-1(7-37)OH],0.7 fold of Val^8-GLP-1(7-37)OH
3,HVEGTFTSDVSSYLEEQALKEFIAWLVKGRG-OH [Val^8-Glu^22-Leu^25-GLP-1(7-37)OH],2.8 fold of Val^8-GLP-1(7-37)OH
4,HVEGTFTSDVSSYLEEQAAKEFIAWLVKGRH-OH [Val^8-Glu^22-His^37-GLP-1(7-37)OH],4.7 fold of Val^8-GLP-1(7-37)OH
5,HVEGTYTSDVSSYLEGQAAKEFIAWLVKGRG-OH [Val^8-Tyr^12-GLP-1(7-37)OH],1.7 fold of Val^8-GLP-1(7-37)OH
6,HVEGTYTSDVSSYLEGQAAKEFIAWLVKGR-NH2 [Val^8-Tyr^12-GLP-1(7-36)NH2],1.1 fold of Val^8-GLP-1(7-37)OH
7,HVEGTFTSDLSSYLEEQAAKEFIAWLVKGRG-OH [Val^8-Leu^16-Glu^22-GLP-1(7-37)OH],4.3 fold of Val^8-GLP-1(7-37)OH
8,HVEGTFTSDVSIYLEEQAAKEFIAWLVKGRG-OH [Val^8-Ile^18-Glu^22-GLP-1(7-37)OH],4 fold of Val^8-GLP-1(7-37)OH
9,HVEGTFTSDVSSYLEEQAIKEFIAWLVKGRG-OH [Val^8-GLU^22-Ile^25-GLP-1(7-37)OH],3.1 fold of Val^8-GLP-1(7-37)OH
10,HVEGTFTSDFSSYLEEQAAKEFIAWLVKGRG-OH [Val^8-Phe^16-Glu^22-GLP-1(7-37)OH],2.3 fold of Val^8-GLP-1(7-37)OH
11,HVEGTFTSDVSFYLEEQAAKEFIAWLVKGRG-OH [Val^8-Phe^18-Glu^22-GLP-1(7-37)OH],2 fold of Val^8-GLP-1(7-37)OH
12,HVEGTFTSDWSSYLEEQAAKEFIAWLIKGRG-OH [Val^8-Trp^16-Glu^22-Ile^33-GLP-1(7-37)OH],4.1 fold of Val^8-GLP-1(7-37)OH
13,HVEGTFTSDVSKYLEEQAAKEFIAWLVKGRG-OH [Val^8-Lys^18-Glu^22-GLP-1(7-37)OH],2.5 fold of Val^8-GLP-1(7-37)OH
14,HVEGTFTSDVSSYLEGQAAKEFIAWLVKGRH-OH [Val^8-His^37-GLP-1(7-37)OH],1.2 fold of Val^8-GLP-1(7-37)OH
15,HVEGTFTSDLSSYLEGQAAKEFIAWLVKGRG-OH [Val^8-Leu^16-GLP-1(7-37)OH],1.1 fold of Val^8-GLP-1(7-37)OH
